One block for each substance: values may come before it.
Legend:
[1] = molecular target: OT-1 TCR on naïve OT-1 T cells (mouse); assay: flow cytometry; naïve OT-1 T cells, pMHC 1 µM, UV photocrosslinking, PE-SAv
[2] = molecular target: 5C.C7 TCR on 5C.C7 T cell blasts (mouse) (UniProt A2KF29); assay: flow cytometry; 5C.C7 T cell blasts, one hour at room temperature after staining
[3] = molecular target: 5C.C7 TCR on 5C.C7 T cell blasts (mouse) (UniProt A2KF29); assay: flow cytometry; 2 µM BioMCC(ASA)-I-Ek photocrosslinked to 5C.C7 T cell blasts, against about 38,000 TCRs per T cell
[4] = molecular target: 5C.C7 TCR on 5C.C7 T cell blasts (mouse) (UniProt A2KF29); assay: cell-based or functional assay
[5] = molecular target: 5C.C7 TCR (as measured by surface plasmon resonance) (mouse); assay: SPR

102S-I-Ek, sequence (P04224 26-216): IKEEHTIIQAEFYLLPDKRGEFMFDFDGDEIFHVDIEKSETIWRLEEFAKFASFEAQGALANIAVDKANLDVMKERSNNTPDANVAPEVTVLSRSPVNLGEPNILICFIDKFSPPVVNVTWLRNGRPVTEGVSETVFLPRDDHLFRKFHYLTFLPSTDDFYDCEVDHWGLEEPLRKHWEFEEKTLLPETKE
OVA(ASA)-Kb, sequence (P01901 22-305): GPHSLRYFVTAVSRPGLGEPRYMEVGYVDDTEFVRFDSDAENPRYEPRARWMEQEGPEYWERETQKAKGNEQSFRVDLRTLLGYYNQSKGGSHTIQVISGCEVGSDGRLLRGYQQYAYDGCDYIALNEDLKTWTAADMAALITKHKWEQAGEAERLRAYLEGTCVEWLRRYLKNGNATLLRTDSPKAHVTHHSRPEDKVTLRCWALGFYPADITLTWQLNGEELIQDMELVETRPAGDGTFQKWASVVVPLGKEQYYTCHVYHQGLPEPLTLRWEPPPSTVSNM
PE-conjugated MCC-I-Ek tetramer, sequence (P04224 26-216): as the sequence (P04224 26-216) above
MCC(Cy5)-I-Ek, sequence (P04224 26-216): as above

fold efficiency of staining against the null SIAAFASL(ASA)-Kb monomer [1]: > 10 fold
Substance: OVA(ASA)-Kb (from UniProt P01901 22-305) (peptide-MHC)

peak of fura-2 excitation ratio (340 nm/380 nm) above the baseline; 6100 standard agonist pMHCs per cell [4]: 2.5 fold
Substance: MCC(Cy5)-I-Ek (from UniProt P04224 26-216) (peptide-MHC)

Continued, substance first:

Substance: BioMCC(ASA)-I-Ek (from UniProt P04224 26-216) (peptide-MHC)
decrease of the staining signal after one hour at room temperature [2]: 5%
percent of the total TCRs on a T cell surface permanently bound [3]: 16%
duration of calcium flux on planar lipid bilayer with ICAM-1 and B7-1 [4]: > 10 min
duration of calcium flux on planar lipid bilayer without ICAM-1 and B7-1 [4]: 3 min
peak of fura-2 excitation ratio (340 nm/380 nm) above the baseline; 5100 or 7900 photocrosslinked pMHCs per cell [4]: 2.5 fold

Substance: 102S-I-Ek (from UniProt P04224 26-216) (peptide-MHC)
Kd [5]: 206 µM
t1/2 [5]: 0.83 s

Substance: PE-conjugated MCC-I-Ek tetramer (from UniProt P04224 26-216) (peptide-MHC)
decrease of the staining signal after one hour at room temperature [2]: 50%

— patent US20140120557A1
